{"source": "the supplement of paper PMC10567573", "parents": {"B1": {"name": "SPATS1 (parent)", "chain": "YPEQSKGFHKAGSMLPPVNFSIVP"}}, "data": [{"variants_of": "B1", "test": "protein stability index of a GFP-peptide fusion (GPS, HEK-293T) (PSI 1-6); higher = more stable", "conditions": "c terminus: a fixed tail appended", "values": [{"variant": "YPEQSKQFHKAGSMLPPVNFSIVP", "protein stability index": 1.73}, {"variant": "YPEQSKCFHKAGSMLPPVNFSIVP", "protein stability index": 1.94}, {"variant": "YPEQSKEFHKAGSMLPPVNFSIVP", "protein stability index": 1.63}, {"variant": "YPEQSKHFHKAGSMLPPVNFSIVP", "protein stability index": 1.43}, {"variant": "YPEQSKIFHKAGSMLPPVNFSIVP", "protein stability index": 2.34}, {"variant": "YPEQSKPFHKAGSMLPPVNFSIVP", "protein stability index": 1.71}, {"variant": "YPEQSKDFHKAGSMLPPVNFSIVP", "protein stability index": 2.86}, {"variant": "YPEQSKYFHKAGSMLPPVNFSIVP", "protein stability index": 2.14}, {"variant": "YPEQSKNFHKAGSMLPPVNFSIVP", "protein stability index": 2.09}, {"variant": "YPEQSKMFHKAGSMLPPVNFSIVP", "protein stability index": 2.2}, {"variant": "YPEQSKAFHKAGSMLPPVNFSIVP", "protein stability index": 2.45}, {"variant": "YPEQSKFFHKAGSMLPPVNFSIVP", "protein stability index": 2.12}, {"variant": "YPEQSKWFHKAGSMLPPVNFSIVP", "protein stability index": 1.7}, {"variant": "YPEQSKTFHKAGSMLPPVNFSIVP", "protein stability index": 3.08}, {"variant": "YPEQSKRFHKAGSMLPPVNFSIVP", "protein stability index": 2.92}, {"variant": "YPEQSKVFHKAGSMLPPVNFSIVP", "protein stability index": 1.86}, {"variant": "YPEQSKKFHKAGSMLPPVNFSIVP", "protein stability index": 2.39}, {"variant": "YPEQSKSFHKAGSMLPPVNFSIVP", "protein stability index": 1.9}, {"variant": "YPEQSKLFHKAGSMLPPVNFSIVP", "protein stability index": 2.24}, {"variant": "YPEQSKGFHVAGSMLPPVNFSIVP", "protein stability index": 1.76}, {"variant": "YPEQSKGFHAAGSMLPPVNFSIVP", "protein stability index": 1.85}, {"variant": "YPEQSKGFHEAGSMLPPVNFSIVP", "protein stability index": 2.58}, {"variant": "YPEQSKGFHYAGSMLPPVNFSIVP", "protein stability index": 2.15}, {"variant": "YPEQSKGFHMAGSMLPPVNFSIVP", "protein stability index": 1.93}, {"variant": "YPEQSKGFHTAGSMLPPVNFSIVP", "protein stability index": 2.08}, {"variant": "YPEQSKGFHDAGSMLPPVNFSIVP", "protein stability index": 2.54}, {"variant": "YPEQSKGFHRAGSMLPPVNFSIVP", "protein stability index": 2.47}, {"variant": "YPEQSKGFHIAGSMLPPVNFSIVP", "protein stability index": 1.7}, {"variant": "YPEQSKGFHFAGSMLPPVNFSIVP", "protein stability index": 1.57}, {"variant": "YPEQSKGFHCAGSMLPPVNFSIVP", "protein stability index": 3.44}, {"variant": "YPEQSKGFHSAGSMLPPVNFSIVP", "protein stability index": 1.91}, {"variant": "YPEQSKGFHPAGSMLPPVNFSIVP", "protein stability index": 2}, {"variant": "YPEQSKGFHLAGSMLPPVNFSIVP", "protein stability index": 2.88}, {"variant": "YPEQSKGFHWAGSMLPPVNFSIVP", "protein stability index": 3.61}, {"variant": "YPEQSKGFHQAGSMLPPVNFSIVP", "protein stability index": 1.9}, {"variant": "YPEQSKGFHGAGSMLPPVNFSIVP", "protein stability index": 1.52}, {"variant": "YPEQSKGFHNAGSMLPPVNFSIVP", "protein stability index": 2}, {"variant": "YPEQSKGFHHAGSMLPPVNFSIVP", "protein stability index": 1.44}, {"variant": "YPEQSKGFHKALSMLPPVNFSIVP", "protein stability index": 2.24}, {"variant": "YPEQSKGFHKAMSMLPPVNFSIVP", "protein stability index": 1.7}, {"variant": "YPEQSKGFHKATSMLPPVNFSIVP", "protein stability index": 2.04}, {"variant": "YPEQSKGFHKARSMLPPVNFSIVP", "protein stability index": 2.26}, {"variant": "YPEQSKGFHKAHSMLPPVNFSIVP", "protein stability index": 1.94}, {"variant": "YPEQSKGFHKAWSMLPPVNFSIVP", "protein stability index": 2.08}, {"variant": "YPEQSKGFHKACSMLPPVNFSIVP", "protein stability index": 2.75}, {"variant": "YPEQSKGFHKAQSMLPPVNFSIVP", "protein stability index": 1.66}, {"variant": "YPEQSKGFHKAASMLPPVNFSIVP", "protein stability index": 1.76}, {"variant": "YPEQSKGFHKASSMLPPVNFSIVP", "protein stability index": 1.84}, {"variant": "YPEQSKGFHKAESMLPPVNFSIVP", "protein stability index": 1.95}, {"variant": "YPEQSKGFHKADSMLPPVNFSIVP", "protein stability index": 2.08}, {"variant": "YPEQSKGFHKAISMLPPVNFSIVP", "protein stability index": 1.49}, {"variant": "YPEQSKGFHKAYSMLPPVNFSIVP", "protein stability index": 2.64}, {"variant": "YPEQSKGFHKAPSMLPPVNFSIVP", "protein stability index": 2}, {"variant": "YPEQSKGFHKANSMLPPVNFSIVP", "protein stability index": 1.94}, {"variant": "YPEQSKGFHKAVSMLPPVNFSIVP", "protein stability index": 1.79}, {"variant": "YPEQSKGFHKAKSMLPPVNFSIVP", "protein stability index": 1.98}, {"variant": "YPEQSKGFHKAFSMLPPVNFSIVP", "protein stability index": 1.64}, {"variant": "YPEQSKGFHKAGHMLPPVNFSIVP", "protein stability index": 1.9}, {"variant": "YPEQSKGFHKAGEMLPPVNFSIVP", "protein stability index": 2.24}, {"variant": "YPEQSKGFHKAGKMLPPVNFSIVP", "protein stability index": 1.95}, {"variant": "YPEQSKGFHKAGLMLPPVNFSIVP", "protein stability index": 1.88}, {"variant": "YPEQSKGFHKAGNMLPPVNFSIVP", "protein stability index": 2.13}, {"variant": "YPEQSKGFHKAGAMLPPVNFSIVP", "protein stability index": 1.68}, {"variant": "YPEQSKGFHKAGPMLPPVNFSIVP", "protein stability index": 1.88}, {"variant": "YPEQSKGFHKAGMMLPPVNFSIVP", "protein stability index": 1.69}, {"variant": "YPEQSKGFHKAGCMLPPVNFSIVP", "protein stability index": 1.73}, {"variant": "YPEQSKGFHKAGGMLPPVNFSIVP", "protein stability index": 1.85}, {"variant": "YPEQSKGFHKAGFMLPPVNFSIVP", "protein stability index": 1.97}, {"variant": "YPEQSKGFHKAGIMLPPVNFSIVP", "protein stability index": 1.74}, {"variant": "YPEQSKGFHKAGDMLPPVNFSIVP", "protein stability index": 2.17}, {"variant": "YPEQSKGFPKAGSMLPPVNFSIVP", "protein stability index": 2.19}, {"variant": "YPEQSKGFCKAGSMLPPVNFSIVP", "protein stability index": 1.82}, {"variant": "YPEQSKGFNKAGSMLPPVNFSIVP", "protein stability index": 2.75}, {"variant": "YPEQSKGFLKAGSMLPPVNFSIVP", "protein stability index": 1.66}, {"variant": "YPEQSKGFFKAGSMLPPVNFSIVP", "protein stability index": 4.31}, {"variant": "YPEQSKGFYKAGSMLPPVNFSIVP", "protein stability index": 2.21}, {"variant": "YPEQSKGFEKAGSMLPPVNFSIVP", "protein stability index": 2.81}, {"variant": "YPEQSKGFRKAGSMLPPVNFSIVP", "protein stability index": 2.42}, {"variant": "YPEQSKGFVKAGSMLPPVNFSIVP", "protein stability index": 2.13}, {"variant": "YPEQSKGFDKAGSMLPPVNFSIVP", "protein stability index": 2.94}, {"variant": "YPEQSKGFWKAGSMLPPVNFSIVP", "protein stability index": 3.39}, {"variant": "YPEQSKGFQKAGSMLPPVNFSIVP", "protein stability index": 2.51}, {"variant": "YPEQSKGFAKAGSMLPPVNFSIVP", "protein stability index": 2.1}, {"variant": "YPEQSKGFSKAGSMLPPVNFSIVP", "protein stability index": 2.4}, {"variant": "YPEQSKGFTKAGSMLPPVNFSIVP", "protein stability index": 2.16}, {"variant": "YPEQSKGFGKAGSMLPPVNFSIVP", "protein stability index": 2.13}, {"variant": "YPEQSKGFMKAGSMLPPVNFSIVP", "protein stability index": 2.14}, {"variant": "YPEQSKGFIKAGSMLPPVNFSIVP", "protein stability index": 2.38}, {"variant": "YPEQSKGFKKAGSMLPPVNFSIVP", "protein stability index": 2.56}, {"variant": "YPESSKGFHKAGSMLPPVNFSIVP", "protein stability index": 1.99}, {"variant": "YPEISKGFHKAGSMLPPVNFSIVP", "protein stability index": 1.85}, {"variant": "YPEPSKGFHKAGSMLPPVNFSIVP", "protein stability index": 2.16}, {"variant": "YPELSKGFHKAGSMLPPVNFSIVP", "protein stability index": 1.81}, {"variant": "YPEESKGFHKAGSMLPPVNFSIVP", "protein stability index": 3.03}]}]}
